# Data taken from the RNAGym collection of RNA variant scans (doi:10.1073/pnas.2313332121).
# B1: TPR t1 (parent)
# chain: GACCAAUCUGCCCUCAGAGCUCGAGAACAUCUUCGGAUGCAGAGGAGGCAGGCUUCGGUGGCGCGAUAGCGCCAACGUCCUCAACCUCCAAUGCAUCCCACCACAUGAUGAUGCCUGAAGAGCCUUGGUUUUUUG
# Variants of: B1
# Experiment: polymerase ribozyme fitness, log enrichment relative to wild type (log ratio); higher = more active; in vitro selection for triplet polymerase activity
# Outline: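 Only genotypes with ≥10 input reads and ≥1 read per output were kept after Illumina sequencing of input and output libraries. These libraries were PCR-built, transcribed mutants of each subunit of a heterodimeric triplet polymerase ribozyme, each put through one triplicate in vitro selection round with frozen incubation at −7 °C, gel excision of extended constructs, streptavidin-bead capture and RT-PCR. Fitness is a logarithmic ratio of genotype enrichment to wild-type enrichment, from inverse-variance-weighted replicate averages, with the logarithm in base 2.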
row,Variant,polymerase ribozyme fitness (log ratio)
1,A6G A24G C73A,-1.35
2,A6C G44C G58A U96A,-2.15
3,A6U G10A C22U C82A,-5.33
4,A6U A66G C85G,-2.09
5,A6G C13U C72U C102U G122A,-2.6
6,A6C G57C C70U,-0.399
7,A6U A100C U106A,0.0954
8,A6G C49U G69U,-0.168
9,A6U A29U C34A G69U A90G A95U,-2.59
10,A6C G48C C72U U106A,-1.51
11,A6G G48U,-0.663
12,A6U G48U C72U C94U A111C,-0.448
13,A6U C20A G69U C85A,-4.42
14,A6C G36U U96G G120C G122A,-0.981
15,A6U C72A C85U A90G G107U U112A,-4.8
16,A6G C13U C98U A119U,-2.09
17,A6U A29U A66C C115G G117U,-6.19
18,A6U C15G A37G,-1.93
19,A6G C12U C22U A50G C56A,-4.54
20,A6C C115G,-2.07
21,A6G C8A A26G A84U C99A,-5.28
22,A6C C62G G113A,-3.34
23,A6C U7C C56U A91G U106G G120U,-4.11
24,A6G C49G C56G U81G C114U U132C,-5.17

row,Variant,polymerase ribozyme fitness (log ratio)
1,A6G A95C,-1.16
2,A6C U9C C13U G17A G58A A121G,0.229
3,A6U G45U C49U C76G,-0.941
4,A6C G35U G39A G61U A74C C86U C101A C115U,-6.88
5,A6U G48U C64U U81G,-4.27
6,A6G A29U A37G C56U C62G U87G A105C G117C,-5.41
7,A6U G48U C72A,0.271
8,A6U G47A C53U C56A U59A A83U,-1.88
9,A6U C72G C73U A90U C98G C102U A108U C123G,-7.4
10,A6U C8G G44C C64U U96C,-1.02
11,A6U C8G G17A G48C C53A U126C,-4.16
12,A6G U9C,0.178
13,A6U A46U U116A,-4.28
14,A6C C101A U132A,-1.42
15,A6C U30G A43C C88U C97G U109G,-6.22
16,A6G C98G,-6.34
17,A6G U54A G93A,-0.596
18,A6G C102A C124A U130A,0.13
19,A6U C12A C124A,0.761
20,A6U G17C A50C U87A,-4.69
21,A6U A111C,-0.0776
22,A6U C8U C70A C101G,-3.42
23,A6G C56G A103U,-4.63
24,A6G G61C C89U,-2.67

row,Variant,polymerase ribozyme fitness (log ratio)
1,A6C C98A,-4.73
2,A6G C12G A27U G113U U125A,-7.04
3,A6U C49A C62U C70G C104A U125A,-7.09
4,A6C U9G G47C G63A A83U G120U,-1.35
5,A6U G48C C102U U131C,-1.55
6,A6C U78C,-0.721
7,A6G C22U G44C C88U,-6.05
8,A6G C102A,-1.96
9,A6C G48U C72U U87C G110U,-2.52
10,A6U G48U U81C A121G,0.747
11,A6G A91C,-1.54
12,A6C C72U G93U A100U,-2.39
13,A6U C72G U78G U130C,-0.0449
14,A6C G61A,-0.848
15,A6C U7A C8G C13A G42C C72A C76G,-2.51
16,A6U C12U G23C G63U G120U,-7.69
17,A6G C12U A50U U54G A100C,-6.08
18,A6G U59C,-0.609
19,A6U C99U C115U,-7.34
20,A6U G51C C56U,-2.91
21,A6C U32A C64U A111G,-4.1
22,A6U G48C U54A C89A C97U,-3.1
23,A6U C12G G45C,-1.57
24,A6G U21C C114A,-0.942

row,Variant,polymerase ribozyme fitness (log ratio)
1,A6G C72U U112G,0.809
2,A6U C70U,-0.544
3,A6U C8U C40U A43U G48C U132A,-1.71
4,A6G A37U C56G,-1.11
5,A6U A41G U81A,-1.63
6,A6G C73U G117C,-2.3
7,A6C G47U C124A,-1.59
8,A6U G61A,-0.0423
9,A6G G45U C73U C98U A111G U125A,-5.29
10,A6U C86U,-0.389
11,A6G C12A C80U G113U,-3.95
12,A6U G60U,-0.858
13,A6U G60A U81A C99U,-5.5
14,A6U C97U,-0.46
15,A6U C97A,-3.55
16,A6U C12U C56U A95G,-0.128
17,A6G A41C C76U C115U U130A U133A,-2.77
18,A6G C15U C89U U96A,-0.964
19,A6U G45A A50U G113C,-5.5
20,A6C U14G C94U C101G,-4.26
21,A6U C13A U21C G69A C82A,-2.61
22,A6G C72G C88U C123A,0.738
23,A6U G48U A105U,-2.38
24,A6C U9C A46C G61A C62U C82U,-3.08

row,Variant,polymerase ribozyme fitness (log ratio)
1,A6G G36C C72U C80A U116A C123A,-5.42
2,A6G C98U U106A C124A,1.28
3,A6G G58A U59C,-1.72
4,A6U C13U C72A,0.0717
5,A6G U9A C34U,-3.96
6,A6G A90U,-0.939
7,A6C G120A,0.157
8,A6C G120U,0.259
9,A6U A75U C82A C115A U125A G128C,-3.75
10,A6U A29G G71A A83G C89A U109C G120C C123G U132A,-6.04
11,A6U C11U,0.0672
12,A6G C99A C123U,-5.05
13,A6C C73U C89U G113A,-2.7
14,A6U C40U G57C G61U A100C G113A,-3.51
15,A6U C56G C76U C86A A90G,-1.7
16,A6G A46U G48U C101U U116C G122U,-5.6
17,A6U G57U G61A U87C C99A C124A,-5.7
18,A6U A18U A74C C85G C115A U129G,-4.74
19,A6U G60U G110U,-0.996
20,A6U A29G G61U C89A A121G,-0.882
21,A6G A43G G57U C73U U81A,-3.53
22,A6U C8G C13A G19U G61C G93C G120C,-5.97
23,A6G A43G,-2.57
24,A6U G44U U87A A91C C97U,-1.94

row,Variant,polymerase ribozyme fitness (log ratio)
1,A6U C8G G60A U130C,-0.0856
2,A6G C12A C56A C72A,-1.87
3,A6C G48C,-1.5
4,A6U C11G G48U C82G C85U,-0.874
5,A6C G69U C76G C85G G120U,-1.75
6,A6C C70A C73U,-2.44
7,A6U A121G,2.04
8,A6C G107U,-4.64
9,A6C G36C,-1.4
10,A6G U7G G44U G58C G113A,-0.812
11,A6C C72U A105C U131C,-2.59
12,A6U C85G,-1.65
13,A6C C72U A91G A121U G128C,-0.723
14,A6G G36A,-0.889
15,A6C U9G G77C A105G U126A,-4.13
16,A6G U7C A50U C80G U112G,-4.92
17,A6G A41C C56A G93U G117C,-4.14
18,A6U A50U A95C,-1.57
19,A6U A27G C82U G110U,-2.67
20,A6U A24C C28A G47U G65C C102G G107A G120A G127U,-6.59
21,A6U C53G C114A U131C,-1.89
22,A6U C62U,0.19
23,A6C G61A U92A,-3.09
24,A6U G51C A74U G113A C123G,-4.2

row,Variant,polymerase ribozyme fitness (log ratio)
1,A6G A29C G45U C102A C124U,-5.32
2,A6G G63U,-1.16
3,A6G G63C,0.397
4,A6U C56U C72U,0.0866
5,A6C C72U G120U U133A,-0.162
6,A6U C8G G60A C72A U130C,-0.0324
7,A6U C13A A16U C49A G63A C101A,-4.21
8,A6G G10C U112A,-0.0126
9,A6C U38A C115A,-1.35
10,A6G C12A A46U C53A C56A,-1.28
11,A6U G42U U87A C94A C123G,-1.12
12,A6U G48U G71C G117A,-3.59
13,A6U A91U A121C C124A,-0.453
14,A6U A16G G63U C89U,-3.25
15,A6U G36C G44A G77U C123G,-0.241
16,A6C U21G G39U C72G C85A C124U G128A U133A,-3.4
17,A6C C97G,-5.16
18,A6C C97U,-1.01
19,A6U C94G G120A,0.554
20,A6C G47U,-1.55
21,A6G U38G G47U G117A G120C,-5.06
22,A6G A41U C85G A119U U125G,-6.15
23,A6C U7C,-0.0861
